{
  "source": "paper doi:10.1101/2024.03.15.585201",
  "about": "(bioRxiv, 2024)",
  "target": "the molecule itself",
  "experiment": "cryo-EM structure",
  "data": [
    {"protein": "BmrA E504A mutant (natural protein) MPTKKQKSKSKLKPFFALVRRTNPSYGKLAFALALSVVTTLVSLLIPLLTKQLVDGFSMSNLSGTQIGLIALVFFVQAGLSAYATYALNYNGQKIISGLRELLWKKLIKLPVSYFDTNASGETVSRVTNDTMVVKELITTHISGFITGIISVIGSLTILFIMNWKLTLLVLVVVPLAALILVPIGRKMFSISRETQDETARFTGLLNQILPEIRLVKASNAEDVEYGRGKMGISSLFKLGVREAKVQSLVGPLISLVLMAALVAVIGYGGMQVSSGELTAGALVAFILYLFQIIMPMGQITTFFTQLQKSIGATERMIEILAEEEEDTVTGKQIENAHLPIQLDRVSFGYKPDQLILKEVSAVIEAGKVTAIVGPSGGGKTTLFKLLERFYSPTAGTIRLGDEPVDTYSLESWREHIGYVSQESPLMSGTIRENICYGLERDVTDAEIEKAAEMAYALNFIKELPNQFDTEVGERGIMLSGGQRQRIAIARALLRNPSILMLDAATSSLDSQSEKSVQQALEVLMEGRTTIVIAHRLSTVVDADQLLFVEKGEITGRGTHHELMASHGLYRDFAEQQLKMNADLENKAG", "values": [
      {"measurement": "stoichiometry N", "value": 2}
    ]}
  ]
}
